Data as given in patent US20140377289A1, “Metallodrugs Having Improved Pharmacological Properties, and Methods of Manufacture and Use Thereof” (MetalloPharm, LLC, priority 2011, published 2014).
Where no end group is shown, it is not given here. [ ]: non-standard residue; d: D form. Cha = N[C@@H](CC1CCCCC1)C(=O)O

Key:
[1] = biological target: T1, S. aureus sortase A (S. aureus), Q2FV99; experiment: apparent binding affinity (IC50) for S. aureus sortase A; assay not described
T1 chain: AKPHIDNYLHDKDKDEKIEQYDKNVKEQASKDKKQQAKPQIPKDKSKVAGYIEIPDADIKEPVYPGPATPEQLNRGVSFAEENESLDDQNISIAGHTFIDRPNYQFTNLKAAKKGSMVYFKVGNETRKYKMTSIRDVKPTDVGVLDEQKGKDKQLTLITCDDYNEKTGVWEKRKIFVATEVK

[2] = biological target: HCV protease (hepatitis C virus (HCV)); experiment: cell-based or functional assay
[3] = biological target: HCV protease (hepatitis C virus (HCV)); experiment: apparent binding affinity for HCV protease; method not described
[4] = biological target: T2, B. anthracis lethal factor (B. anthracis), P15917
T2 chain: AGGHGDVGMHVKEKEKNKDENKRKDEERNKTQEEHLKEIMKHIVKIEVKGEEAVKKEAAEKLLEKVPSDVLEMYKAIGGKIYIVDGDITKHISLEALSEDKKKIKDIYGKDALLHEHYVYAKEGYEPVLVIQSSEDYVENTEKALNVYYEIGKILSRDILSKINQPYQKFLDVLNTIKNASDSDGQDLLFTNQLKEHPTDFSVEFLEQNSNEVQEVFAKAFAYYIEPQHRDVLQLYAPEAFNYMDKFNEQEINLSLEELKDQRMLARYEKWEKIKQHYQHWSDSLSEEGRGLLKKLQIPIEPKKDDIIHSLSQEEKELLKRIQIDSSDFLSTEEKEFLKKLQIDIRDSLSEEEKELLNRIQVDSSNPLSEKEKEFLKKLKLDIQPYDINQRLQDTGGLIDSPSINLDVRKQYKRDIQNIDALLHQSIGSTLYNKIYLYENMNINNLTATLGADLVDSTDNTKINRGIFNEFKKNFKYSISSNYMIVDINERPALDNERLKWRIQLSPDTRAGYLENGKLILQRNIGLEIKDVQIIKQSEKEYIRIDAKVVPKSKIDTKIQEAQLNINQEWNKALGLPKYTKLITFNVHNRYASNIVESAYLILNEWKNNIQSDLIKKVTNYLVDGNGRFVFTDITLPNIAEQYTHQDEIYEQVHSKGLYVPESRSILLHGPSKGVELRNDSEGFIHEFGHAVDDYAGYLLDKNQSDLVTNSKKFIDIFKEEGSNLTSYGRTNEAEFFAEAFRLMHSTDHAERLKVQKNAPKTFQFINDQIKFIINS

[5] = biological target: T2, B. anthracis lethal factor (B. …); experiment: cell-based or functional assay
[6] = biological target: T3, metalloproteinase ECE-1 protease, P42892; experiment: cell-based or functional assay
T3 chain: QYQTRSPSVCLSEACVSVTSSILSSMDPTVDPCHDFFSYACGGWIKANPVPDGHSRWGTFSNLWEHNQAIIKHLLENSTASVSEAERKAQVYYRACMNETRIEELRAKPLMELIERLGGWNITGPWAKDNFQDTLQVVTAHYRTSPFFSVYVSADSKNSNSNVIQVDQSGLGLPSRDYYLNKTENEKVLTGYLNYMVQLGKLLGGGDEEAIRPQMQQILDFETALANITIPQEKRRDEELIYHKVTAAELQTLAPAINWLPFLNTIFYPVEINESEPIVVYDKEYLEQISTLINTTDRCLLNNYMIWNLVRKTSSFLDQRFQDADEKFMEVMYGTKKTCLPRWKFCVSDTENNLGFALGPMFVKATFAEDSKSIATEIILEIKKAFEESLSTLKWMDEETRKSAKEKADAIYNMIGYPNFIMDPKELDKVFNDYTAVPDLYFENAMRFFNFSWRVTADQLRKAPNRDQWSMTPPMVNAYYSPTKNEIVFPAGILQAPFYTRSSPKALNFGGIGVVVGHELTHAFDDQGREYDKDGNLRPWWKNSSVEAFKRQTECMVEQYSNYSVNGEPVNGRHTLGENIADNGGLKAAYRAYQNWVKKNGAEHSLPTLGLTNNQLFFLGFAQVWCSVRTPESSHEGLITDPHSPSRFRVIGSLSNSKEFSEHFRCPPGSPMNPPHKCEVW

[7] = biological target: T3, metalloproteinase ECE-1 protease, P42892; experiment: apparent binding affinity for ECE-1; method not described
[8] = biological target: HCV protease (hepatitis C virus (HCV)); experiment: inhibition constant for HCV protease (FIG. 1, left); method not described
[9] = biological target: HCV protease (hepatitis C virus (HCV)); experiment: affinity of metallopeptide for HCV protease; method not described

## GGHGLPET (modifications not checked) [Cu-GGHGLPET]
[1]
  IC50: > 100 µM

## GGHGLPETG (modifications not checked) [Cu-…]
[1]
  IC50: > 100 µM

## GGHGD[dE]LI[Cha]T (also: Cu complex) [Cu-GGHGDeLI(Cha)T]
[2]
  kinact: 0.042 min⁻¹
[3]
  Ka: 33000 M⁻¹

## GCHP (modifications not checked) [Cu-GCHP]
[4]
  Ka: 45000 M⁻¹
[5]
  kinact: 0.077 min⁻¹

## GGHLPETG (modifications not checked) [Cu-GGHLPETG]
[1]
  IC50: > 100 µM

## KGHK (modifications not checked) [Cu-KGHK]
[4]
  Ka: 125000 M⁻¹
[5]
  kinact: 0.035 min⁻¹

## GGHLPET (modifications not checked) [Cu-GGHLPET]
[1]
  IC50: > 100 µM

## GGHGGDF (modifications not checked) [Cu-GGHGGDF]
[6]
  kinact: 0.5 min⁻¹
[7]
  Ka: 80000 M⁻¹

## GGHGD[dE]LI[Cha]C-OH (also: Cu complex) [Cu-GGHGDeLI(Cha)C-CO2^-]
[2]
  kinact: 0.0014 min⁻¹
  rate constant for inactivation kinact: < 0.083 h⁻¹
[3]
  Ka: 2e+06 M⁻¹
[8]
  Ki: 500 nM

## GGHD[dE]LI[Cha]CP[Cha]DL [Gly-Gly-His-Asp-D-Glu-Leu-Ile-Cha-Cys-Pro-Cha-Asp-Leu]
[9]
  affinity: 10 nM
